In US20150368323A1 (MorphoSys, published 2015):
Substitutions are numbered along the chain they refer to. Ends that are not written are not given here.

T1: Linear peptide, loop 1 of MprF (Staphylococcus aureus, added N-terminal Cysteine coupled to carrier protein BSA or transferrin; FIG. 2 legend calls it biotinylated)
T1 construct: coated as BSA or transferrin conjugate in the ELISA; also called linear loop 1 peptide
T1 peptide: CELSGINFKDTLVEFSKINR

T2: Linear peptide, loop 4 of MprF (Staphylococcus aureus, also: N-terminal Cys coupled to BSA or transferrin, called biotinylated legend)
T2 construct: coated as BSA or transferrin conjugate in the ELISA; also called linear loop 4 peptide
T2 peptide: CGLGFKTLGVPEEKV

T3: MprF protein of Staphylococcus aureus (Staphylococcus aureus, UniProt Q2G2M2 1-840)
T3 construct: Presented on whole S. aureus cells (Protein A deletion mutant, delta spa; SA113 delta spa in the functional assays); also called MprF on S. aureus
T3 sequence: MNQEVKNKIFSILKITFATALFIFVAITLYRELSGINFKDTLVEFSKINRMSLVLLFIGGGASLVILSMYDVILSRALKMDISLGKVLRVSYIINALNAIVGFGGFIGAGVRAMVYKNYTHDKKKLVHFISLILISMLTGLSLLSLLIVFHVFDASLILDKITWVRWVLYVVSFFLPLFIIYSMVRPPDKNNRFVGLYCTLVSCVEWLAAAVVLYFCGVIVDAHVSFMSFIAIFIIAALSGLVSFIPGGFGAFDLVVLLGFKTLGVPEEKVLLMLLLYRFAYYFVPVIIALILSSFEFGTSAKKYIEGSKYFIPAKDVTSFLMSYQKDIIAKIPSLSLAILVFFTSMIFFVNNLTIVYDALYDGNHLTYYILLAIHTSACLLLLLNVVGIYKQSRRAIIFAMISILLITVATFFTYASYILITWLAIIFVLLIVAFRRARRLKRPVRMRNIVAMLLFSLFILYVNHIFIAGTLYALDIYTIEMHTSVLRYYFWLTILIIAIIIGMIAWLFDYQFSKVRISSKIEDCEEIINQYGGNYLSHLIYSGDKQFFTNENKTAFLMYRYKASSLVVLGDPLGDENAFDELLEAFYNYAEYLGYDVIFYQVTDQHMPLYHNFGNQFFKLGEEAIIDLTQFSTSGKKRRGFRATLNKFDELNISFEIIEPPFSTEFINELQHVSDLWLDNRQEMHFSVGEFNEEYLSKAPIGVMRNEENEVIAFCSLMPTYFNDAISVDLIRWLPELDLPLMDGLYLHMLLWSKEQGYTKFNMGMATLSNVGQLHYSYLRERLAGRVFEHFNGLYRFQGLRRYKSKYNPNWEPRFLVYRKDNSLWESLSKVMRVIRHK

B1: M-L1 (antibody, V domains shown)
VH: QVQLVQSGAEVKKPGSSVKVSCKASGGTFNSYAIHWVRQAPGQGLEWMGGIIPIFGIANYAQKFQGRVTITADESTSTAYMELSSLRSEDTAVYYCARDQYTYDYYRAFDYWGQGTLVTVSS
VL: DIVLTQSPATLSLSPGERATLSCRASQSVRDNLAWYQQKPGQAPRLLIYGASNRATGIPARFSGSGSGTDFTLTISSLEPEDFAVYYCQQYDHSPRTFGQGTKVEIKR
notes: Framework VH1A kappa 3
B2: M-L4 (antibody, V domains shown)
VH: EVQLLESGGGLVQPGGSLRLSCAASGFTFRSYAMSWVRQAPGKGLEWVSIISYDGSSTYYADSVKGRFTISRDNSKNTLYLQMNSLRAEDTAVYYCARTATSGSRGYFDYWGQGTLVTVSS
VL: DIQMTQSPSSLSASVGDRVTITCRASQDISSWLNWYQQKPGKAPKLLIFGASTLQSGVPSRFSGSGSGTDFTLTISSLQPEDFATYYCQQHYTSPVTFGQGTKVEIKR
notes: Framework VH3-23 kappa 1
B3: M-C1 (antibody, V domains shown)
VH: EVQLLESGGGLVQPGGSLRLSCAASGFTFSSYAMNWVRQAPGKGLEWVSVISSDGSDTYYADSVKGRFTISRDNSKNTLYLQMNSLRAEDTAVYYCARESYYIGWDYWGQGTLVTVSS
VL: DIVLTQSPATLSLSPGERATLSCRASQRVSSSFLAWYQQKPGQAPRLLIYLASNRATGIPARFSGSGSGTDFTLTISSLEPEDFAVYYCLQYGHYPPTFGQGTKVEIKR
notes: Framework VH3-23 kappa 3
B4: M-C4.2 (antibody, V domains shown)
VH: EVQLLESGGGLVQPGGSLRLSCAASGFTFSSYAMHWVRQAPGKGLEWVSVISSVGSSTYYADSVKGRFTISRDNSKNTLYLQMNSLRAEDTAVYYCARGGLDVWGQGTLVTVSS
VL: B2 VL with S31K, W32Y, F49Y, G50A, T53R, H91G, Y92D, T93S, S94T, V96F
notes: Framework VH3-23 kappa 1
B5: M-C4.3 (antibody, V domains shown)
VH: QVQLVQSGAEVKKPGSSVKVSCKASGGTFSDHTISWVRQAPGQGLEWMGGIIPIVGIANYAQKFQGRVTITADESTSTAYMELSSLRSEDTAVYYCAREYYVPDSGWFDYWGQGTLVTVSS
VL: DIQMTQSPSSLSASVGDRVTITCRASQDISDYLVWYQQKPGKAPKLLIYDASNLQSGVPSRFSGSGSGTDFTLTISSLQPEDFATYYCQQYYHYRTFGQGTKVEIKR
notes: Framework VH1A kappa 1
B6: M-C4.5 (antibody, V domains shown)
VH: QVQLQQSGPGLVKPSQTLSLTCAISGDSVSSNSAAWNWIRQSPSRGLEWLGRTYYRSKWYNDYAVSVKSRITINPDTSKNQFSLQLNSVTPEDTAVYYCARSAEPSYAYYHGFDYWGQGTLVTVSS
VL: DIQLTQSPSFLSASVGDRVTITCRASQGISSYLAWYQQKPGKAPKLLIYAASTLQSGVPSRFSGSGSGTEFTLTISSLQPEDFATYYCQQRIIFPQTFGQGTKVEIKR
notes: Selected from the MorphoSys Ylanthia library; framework VH6-1
B7: M-C5.2 (antibody, V domains shown)
VH: EVQLLESGGGLVQPGGSLRLSCAASGFTFSSYAVHWVRQAPGKGLEWVSVISGRGGSTYYADSVKGRFTISRDNSKNTLYLQMNSLRAEDTAVYYCARDHGYFDYWGQGTLVTVSS
VL: DIQMTQSPSSLSASVGDRVTITCRASQTISNHLGWYQQKPGKAPKLLIYTASNLQSGVPSRFSGSGSGTDFTLTISSLQPEDFATYYCQQYSHSSYTFGQGTKVEIKR
notes: Framework VH3-23 kappa 1; also called M-05.2
B8: M-C6.1 (antibody, V domains shown)
VH: QVQLVQSGAEVKKPGSSVKVSCKASGGTFSIYAISWVRQAPGQGLEWMGGIIPEFGTANYAQKFQGRVTITADESTSTAYMELSSLRSEDTAVYYCARSQIYTLSYPKWFDFWGQGTLVTVSS
VL: B7 VL with T28D, H32Y, G34N, T50D, Q89L, S92L, H93Q, S95P, Y96K
notes: Framework VH1A kappa 1
B9: M-C6.2 (antibody, V domains shown)
VH: QVQLVQSGAEVKKPGSSVKVSCKASGGTFSSYAISWVRQAPGQGLEWMGGIIPILGIANYAQKFQGRVTITADESTSTAYMELSSLRSEDTAVYYCARSLPYRSDLYGFSRWSYHRVGMDVWGQGTLVTVSS
VL: B2 VL with S31N, W32T, F49Y, G50A, H91V, Y92G, T93S, S94F, V96Y
notes: Framework VH1A kappa 1
B10: M-C5.1 (antibody, V domains shown)
VH: QVQLVQSGAEVKKPGSSVKVSCKASGGTFSSYAISWVRQAPGQGLEWMGGIVPIFGTANYAQKFQGRVTITADESTSTAYMELSSLRSEDTAVYYCARVRYGYWDVWGQGTLVTVSS
VL: B2 VL with S30A, S31N, F49Y, G50A, T53S, H91Y, Y92I, T93S, S94L, V96I
notes: Framework VH1A kappa 1; also called M-05.1

Target: T1, Linear peptide, loop 1 of MprF
Test: ELISA, IgG on the peptide used in its selection (Table 2)
B1: binds.

Target: T2, Linear peptide, loop 4 of MprF
Test: as above
B2: binds.

What follows are binders tested against T3, MprF protein of Staphylococcus aureus (assay: whole cell ELISA on S. aureus; E. coli as negative control).
B2: binds. B3: binds. B4: binds. B5: binds. B6: binds. B7: binds. B8: binds. B9: binds.

Each binder was assayed against T3, MprF protein of Staphylococcus aureus (assay: whole cell ELISA on S. aureus delta spa versus delta spa delta mprF).
B1: binds. B10: binds.
